# According to paper PMC5664571:
# Target: E. coli RNA polymerase holoenzyme saturated with sigma70 (Escherichia coli) (UniProt P0A7Z4+P0A8V2+P0A8T7+P0A800+P00579)
# Experiment: EMSA
# Settings: EMSA: 10 nM DNA, 0-170 nM RNAP, binding buffer (5X: 750 mM KCl, 0.5 mM DTT, 0.5 mM EDTA, 50 mM Tris pH 7.4; 1X = 150 mM KCl, 0.1 mM DTT, 0.1 mM EDTA, 10 mM …)
row,Substance,Kd
1,J23109 + UP,7.44 nM
2,CCAGGATACATAGATTACCACAACTCCGAGCCCTTCCACCACCTATATTTGCTGCTCGTAAAAAAAAAACTTGACAGCTAGCTCAGTCCTAGGTACTGTGCTAGCAGCTGTCACCGGATGTGCTTTCCGGTCTGATGAGTCCGTGAGGACGAAACAGCCTCTACAAATAATTTTGTTTAATAAGTCCAATAGTTTATAAGGAAAGAATTACCTATGCGTAAAGGCGAAGAGCTGTTCACTGGTGTCGTCCC (double strand) [J23102 + 1/2UP],45.5 nM
3,J23112 + UP,12.6 nM
4,J23115,55 nM
5,J23115 + 1/2UP,51.7 nM
6,J23112,50.8 nM
7,CCAGGATACATAGATTACCACAACTCCGAGCCCTTCCACCACCTATATTTGCTGCTCGTAAAAAAAAAACCTGACAGCTAGCTCAGTCCTAGGTATAATGCTAGCAGCTGTCACCGGATGTGCTTTCCGGTCTGATGAGTCCGTGAGGACGAAACAGCCTCTACAAATAATTTTGTTTAATAAGTCCAATAGTTTATAAGGAAAGAATTACCTATGCGTAAAGGCGAAGAGCTGTTCACTGGTGTCGTCCC (double strand) [J23108 + 1/2UP],22 nM
8,CCAGGATACATAGATTACCACAACTCCGAGCCCTTCCACCACCTATGGAAAATTTTTTTAAAAAAAAAACTTGACAGCTAGCTCAGTCCTAGGTATAATGCTAGCAGCTGTCACCGGATGTGCTTTCCGGTCTGATGAGTCCGTGAGGACGAAACAGCCTCTACAAATAATTTTGTTTAATAAGTCCAATAGTTTATAAGGAAAGAATTACCTATGCGTAAAGGCGAAGAGCTGTTCACTGGTGTCGTCCC (double strand) [J23119 + UP],42 nM
9,J23109,46 nM
10,CCAGGATACATAGATTACCACAACTCCGAGCCCTTCCACCACCTATGGAAAATTTTTTTAAAAAAAAAACTTGACAGCTAGCTCAGTCCTAGGTACTGTGCTAGCAGCTGTCACCGGATGTGCTTTCCGGTCTGATGAGTCCGTGAGGACGAAACAGCCTCTACAAATAATTTTGTTTAATAAGTCCAATAGTTTATAAGGAAAGAATTACCTATGCGTAAAGGCGAAGAGCTGTTCACTGGTGTCGTCCC (double strand) [J23102 + UP],44.8 nM
11,CCAGGATACATAGATTACCACAACTCCGAGCCCTTCCACCACCTATATTTGCTGCTCGTAAAAAAAAAACTTGACAGCTAGCTCAGTCCTAGGTATAATGCTAGCAGCTGTCACCGGATGTGCTTTCCGGTCTGATGAGTCCGTGAGGACGAAACAGCCTCTACAAATAATTTTGTTTAATAAGTCCAATAGTTTATAAGGAAAGAATTACCTATGCGTAAAGGCGAAGAGCTGTTCACTGGTGTCGTCCC (double strand) [J23119 + 1/2UP],21 nM
12,CCAGGATACATAGATTACCACAACTCCGAGCCCTTCCACCACCTATGGAAAATTTTTTTAAAAAAAAAACCTGACAGCTAGCTCAGTCCTAGGTATAATGCTAGCAGCTGTCACCGGATGTGCTTTCCGGTCTGATGAGTCCGTGAGGACGAAACAGCCTCTACAAATAATTTTGTTTAATAAGTCCAATAGTTTATAAGGAAAGAATTACCTATGCGTAAAGGCGAAGAGCTGTTCACTGGTGTCGTCCC (double strand) [J23108 + UP],31.4 nM
13,J23112 + 1/2UP,68.2 nM
14,J23109 + 1/2UP,64.8 nM
15,J23115 + UP,38.1 nM
